Changes are numbered by the printed parent chain.
T1: T cell receptor (TCR) Vγ9 (TRGV9) (human, UniProt Q99603 21-122)
T1 chain (looked up): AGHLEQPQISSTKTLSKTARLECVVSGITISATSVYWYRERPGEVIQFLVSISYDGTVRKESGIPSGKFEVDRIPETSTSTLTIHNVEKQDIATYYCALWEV

T2: T cell receptor (TCR) Vγ9 (TRGV9) (human, UniProt Q99603 21-122)
T2 chain (looked up): T1 chain (looked up)

B1: VG9B98 (antibody, human IgG1, kappa, V domains shown)
VH: EVQLVQSGGDLVKSGGSLRLSCAASGFTFSSYSMYWVRQAPGKGLEWVSSIGSSSTYIFYADSVKGRFTISRDNAMTSLYLQMNRLGAEDSAVYYCARDGELGPFEYWGQGTLVTVSS
VL: EIVLTQSPGTLSLSPGERATLSCRASQSVSTSYLAWFQQKPGQAPRLLIFGTSSRATGIPDRFSGSGSGTDFTLTISRLEPEDFAVYHCLQYGRSPLTFGGGTKVDIKR
B2: VG9B104 (antibody, human IgG1, kappa, V domains shown)
VH: EVQLVESGGGLVKPGGSLRLSCAASGFTFSVYSMNWVRQAPGKGLEWVSSIGSSSSYIFYADSVKGRFTISRDNAKNSLYLQMNSLRAEDTAVYYCGRDHDYGGLDYWGQGTLVTVSS
VL: B1 VL with T31S, F37Y, F50Y, T52P, S54N, G58D, S66T, H88Y, L90Q, D106E
B3: VG9B469 (antibody, human IgG1, kappa, V domains shown)
VH: EVQLVESGGGLVKPGGSLRLSCAASGFTFSHYDMNWVRQAPGKGLEWVSSISSSSSYIFYADSVKGRFTISRDNAKNSLLLQMNSLRAEDTAVYHCARDRGVGDTSDYYSFGLDVWGQGTMVTVSS
VL: DIVMTQSPGTLSLSPGERATLSCRASQNVSSTYLAWYQQKPGQAPRLLIYGACSRATGIPDRFSGSGSGTDFTLTISRLEPEDYAVYYCQQYGSSPPYTFGRGTKLEIKR
B4: VG9B73 (antibody, human IgG1, kappa, V domains shown)
VH: EVQLVQSGGGLVKPGGSLRLSCAASGFTFSNYDMNWVRQAPGKGLEWVSSISSSSSYIYYADSVKGRFTISRDNARNSLFLQMSSLRAEDTAVYYCAREIGVTGTTYYQDYGMDVWGQGTTVTVSS
VL: B3 VL with D1E, N28S, V29F, T32N, C53S, Y84F, V86L, Y98F, R102Q, L106V
B5: VG9B463 (antibody, human IgG1, lambda, V domains shown)
VH: EVQLVESGGGLVKPGGSLRLSCSASGFTFSNYDMNWVRQAPGKGLEWVSSISSSSSYIYYADSVKGRFTISRDNAKNSLYLQMNSLRAEDTAVYHCARDVGVTTDYYYYGMDVWGQGTTVTVSS
VL: QPVLTQSSSASGTPGQRVTISCSGSSSNIGSNTVNWYQQFPGTAPKLLIYTNTQRPSGVPDRFSGSKSGTLVSLAISGLQSEDEADYYCAAWDDSLNAWVFGGGTKLTVLG
B6: VG9B430 (antibody, human IgG1, kappa, V domains shown)
VH: B5 VH with V5L, N31S, T119M
VL: B3 VL with D1E, M4L, E17D, N28S, S30A, T32S, A44S, C53S, Y84F, R102Q
B7: VG9B133 (antibody, human IgG1, kappa, V domains shown)
VH: EVQLVESGGGLVKPGGSLRLSCAAAGFTFSNYDMNWVRQVPGKGLEWVSSISSSSSYIYYADSVKGRFTISRDNAKNSLYLQMNTLRAEDTAVYYCARDLGITGTTMDYYYGMDVWGQGTMVTVSS
VL: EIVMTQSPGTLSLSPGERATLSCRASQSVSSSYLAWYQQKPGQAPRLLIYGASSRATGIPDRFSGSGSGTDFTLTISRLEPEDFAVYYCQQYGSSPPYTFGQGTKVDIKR
B8: VG9B428 (antibody, human IgG1, kappa)
heavy: not shown
light: EIVMTQSPSSVSASVGDRVTITCRASQGINSWLAWYQQKPGNAPKLLIYAASSLQSGVPSRFSGIGSGTDFIFTISSLQPEDFASYYCQQANSFPWTFGQGTKVEIKRTVAAPSVFIFPPSDEQLKSGTASVVCLLNNFYPREAKVQWKVDNALQSGNSQESVTEQDSKDSTYSLSSTLTLSKADYEKHKVYACEVTHQGLSSPVTKSFNRGEC
B9: VG9B198 (antibody, human IgG1, lambda, V domains shown)
VH: QVQLQESGPGLVKPSETLSLTCTVSGDSISSIYWSWIRQSAGKGLEWIGRIYTTDITNYNPSLKSRVTMSADTSKNQLSLKLTSVTAADTAVYYCAKNGYSYGGFNYWGQGTLVTVSS
VL: QSVLTQPPSVSGAPGQRVTISCTGSSSNIGAGYDVHWYQRLPGTAPKLLIYGDSYRPSGVPDRFSGSKSGTSASLAITGLQAEDEADYYCQSYDSSLSVVVFGGGTKLTVLG
B10: VG9B69 (antibody, human IgG1, kappa, V domains shown)
VH: EVQLVESGGGLVKPGGSLRLSCAASGFTFSSYDINWVRQAPGKGLEWVSSITSSSYYIYYADSVKGRFTISRDNAKNSLYLQMNSLRAEDTAVYYCARDLGVRGVDYYYYGLDVWGQGTMVTVSS
VL: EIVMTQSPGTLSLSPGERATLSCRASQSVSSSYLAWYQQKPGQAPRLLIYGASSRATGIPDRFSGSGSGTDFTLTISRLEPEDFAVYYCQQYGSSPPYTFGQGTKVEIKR
B11: VG9B137 (antibody, human IgG1, kappa, V domains shown)
VH: EVQLVESGGGLVKPGGSLRLSCAAFGITFSSYSMDWVRQAPGRGLEWVSSIGSSSSYIFYADSVKGRFTISRDNAKNSLYLQMNSLRAEDTAVYYCATSYSWNYGGAFDIWGQGTMVTVSS
VL: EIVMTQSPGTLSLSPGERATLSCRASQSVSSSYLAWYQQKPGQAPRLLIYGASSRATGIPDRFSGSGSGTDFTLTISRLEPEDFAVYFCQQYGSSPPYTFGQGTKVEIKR
B12: VG9B162 (antibody, human IgG1, lambda, V domains shown)
VH: QVQLVESGAEVTKPGASVKVSCKASGYTFTGDYMHWVRQAPGQGLEWMGWINPNSGYTNYAQKFQGRVTMTRDTSISTAYMELSRLRSDDTAVYYCAREGDAFDVWGQGTMVTVSS
VL: QLVLTQSSSASGSPGQSVTISCTGTSSDVGGYNYVSWYQQHPGKAPKLMIYEVSKRPSGVPDRFSGSKSGNTASLTVSGLQAEDEADYYCNSYAGSNNFEVFGGGTKLTVLG
B13: VG9B33 (antibody, human IgG1, kappa, V domains shown)
VH: EVQLVESGGGLVKPGGSLRLSCAASGFTFSSYNMNWVRQAPGKGLEWVSSISTSSSYIYYADSVKGRFTISRDNAKNSLYLQMNGLRAEDTAVYYCARDTSVTKYPDTFDIWGQGTMVTVSS
VL: DIVMTQSPSSLSASVGDRVTITCRASQDINNYLAWFQQKPGKVPNLLIYGASTLQSGVPSRFTGSGSGTDFTLTISSLQPEDVATYYCQKYNSAPFTFGPGTKVDIKR

Target: T1, T cell receptor (TCR) Vγ9 (TRGV9)
Assay: cell-based or functional assay
Wherever CD25+ (Vg9+ cells), flow staining is given: test concentration or dose not given here.
Wherever CD71+ (Vg9+ cells), flow staining is given: test concentration or dose not given here.
Wherever Granzyme B, Luminex (supernatant) is given: unit not given here.
Wherever IL6, Luminex (supernatant) is given: unit not given here.
Wherever TNFα, Luminex (supernatant) is given: unit not given here.

Point of comparison: B2, “CD25+ (Vg9+ cells), flow staining” value 41.4%. Against it:
- B1 — lower, 29.4%
- B3 — lower, 29.9%
- B4 — lower, 30.6%
- B5 — lower, 26%
- B6 — lower, 37.5%
- B7 — lower, 21.8%
- B8 — lower, 37%
- B9 — lower, 23%
- B10 — lower, 40.4%

Point of comparison: B9, “CD71+ (Vg9+ cells), flow staining” value 91.2%. Against it:
- B1 — lower, 90.5%
- B2 — higher, 95.2%
- B3 — higher, 98.5%
- B4 — higher, 94.1%
- B5 — lower, 87.4%
- B6 — higher, 96.2%
- B7 — higher, 91.4%
- B8 — higher, 98.1%
- B10 — higher, 97.7%

Point of comparison: B3, “Granzyme B, Luminex (supernatant)” value 3700. Against it:
- B1 — lower, 1420
- B2 — higher, 5290
- B4 — lower, 3370
- B5 — lower, 965
- B6 — lower, 2520
- B7 — lower, 3480
- B8 — higher, 4120
- B9 — lower, 1100
- B10 — lower, 3240

Point of comparison: B10, “IFNγ, Luminex (supernatant)” value 2070. Against it:
- B1 — lower, 305
- B2 — higher, 2440
- B3 — lower, 1580
- B4 — lower, 1050
- B5 — lower, 364
- B6 — lower, 1490
- B7 — lower, 1170
- B8 — lower, 2000
- B9 — lower, 324

Point of comparison: B7, “IL6, Luminex (supernatant)” value 478. Against it:
- B1 — lower, 294
- B2 — higher, 1090
- B3 — lower, 440
- B4 — lower, 359
- B5 — lower, 100
- B6 — lower, 372
- B8 — higher, 613
- B9 — lower, 199
- B10 — higher, 591

Point of comparison: B6, “TNFα, Luminex (supernatant)” value 125. Against it:
- B1 — higher, 2010
- B2 — higher, 4130
- B3 — higher, 173
- B4 — higher, 136
- B5 — higher, 2110
- B7 — lower, 123
- B8 — higher, 390
- B9 — lower, 66
- B10 — higher, 1100

Point of comparison: B9, “Vg9 T cell %, flow staining” value 3.6%. Against it:
- B1 — higher, 7.2%
- B2 — higher, 5.1%
- B3 — higher, 7.8%
- B4 — higher, 13.8%
- B5 — higher, 4.1%
- B6 — higher, 10.7%
- B7 — higher, 5.8%
- B8 — higher, 5%
- B10 — higher, 8.8%

Target: T2, T cell receptor (TCR) Vγ9 (TRGV9)
Assay: cell-based or functional assay

Point of comparison: B13, “CD25+ (Vg9+ cells), flow staining” value 28%. Against it:
- B11 — lower, 8.7%
- B12 — lower, 9.7%

Point of comparison: B13, “CD71+ (Vg9+ cells), flow staining” value 95.2%. Against it:
- B11 — lower, 77.3%
- B12 — lower, 70.3%

Point of comparison: B12, “Granzyme B, Luminex (supernatant)” value 481. Against it:
- B11 — lower, 36
- B13 — higher, 1990

Point of comparison: B13, “IFNγ, Luminex (supernatant)” value 749. Against it:
- B11 — lower, 44
- B12 — lower, 57

Point of comparison: B12, “IL6, Luminex (supernatant)” value 54. Against it:
- B11 — lower, 8
- B13 — higher, 240

Point of comparison: B12, “TNFα, Luminex (supernatant)” value 329. Against it:
- B11 — lower, 30
- B13 — lower, 85

Point of comparison: B12, “Vg9 T cell %, flow staining” value 2.7%. Against it:
- B11 — higher, 3.6%
- B13 — higher, 14%

From US20220125947A1 (published 2022)
